Measured values taken from patent US20240218057A1 (ROCKEFELLER UNIVERSITY, published 2024).
Residue numbers refer to the chain shown, from its start.

B1: C924 (antibody, V domains shown)
VH: QVQLVESGGGVVQPGRSLRLSCAASGFTFSSYGMHWVRQAPGKGLEWVAVISDDGSNKYYADSVKGRFTISRDNSKNTLYLQMNSLRAEDTAVYYCAKSWWLSENWFDPWGQGTLVTVSS
VL: EIVMTQSPATLSVSPGERATLSCRASQSVSSNLAWYQQKPGQAPRLLIYGASTRATGIPARFSGTGSGTEFTLTISSLQSEDFAVYYCQQYNNWPLTFGGGTKVEIK
B2: C925 (antibody, V domains shown)
VH: B1 VH with S31N, M34L, I51T, S56N, N57R, N74D, S85N, A88T
VL: B1 VL with S30R, K39R, S52F, G64V, T65S, S76D
B3: C934 (antibody, V domains shown)
VH: QVQLVQSGAEVKKPGASVKVSCKASGYTFTDYYIHWVRQAPGQGLEWMGWINPNSGGTNYAQKFQGRVTMTRDTSISTAYMDLSRLRSDDTAVYYCARDVIITMGRGVVFRMDVWGQGTTVTVSS
VL: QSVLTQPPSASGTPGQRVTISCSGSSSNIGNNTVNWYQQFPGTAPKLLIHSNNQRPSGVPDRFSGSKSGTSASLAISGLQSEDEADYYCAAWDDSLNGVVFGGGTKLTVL
B4: C912 (antibody, V domains shown)
VH: QVQLVESGGGVVQPGRSLRLSCAASGFSFSTYTMHWVRQTPDKGLEWVAVISDDGKNKYYADSMKGRFTISRDNSKNTLYLQMSSLRPEDTAVYYCARDLENVMIEVALESWGQGTLVTVSS
VL: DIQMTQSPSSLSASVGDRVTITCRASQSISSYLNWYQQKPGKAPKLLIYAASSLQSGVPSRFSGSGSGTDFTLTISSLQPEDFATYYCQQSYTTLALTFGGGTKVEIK
B5: C929 (antibody, V domains shown)
VH: EVQLVESGGGLIQPGGSLRLSCAASGFTVSSNYMTWVRQAPGKGLEWVSVIYSGGTTYYADSVKGRFTISRDNSKNTLYLQMNSLRAEDTAVYYCARDLVVWGMDVWGQGTTVTVSS
VL: DIQLTQSPSFLSASVGDRVTITCRASQGISSYLAWYQQKPGKAPKLLIYAASTLQSGVPSRFSGSGSGTEFTLTISSLQPEDFATYYCQLLNSYPYTFGQGTKLEIK
B6: C936 (antibody, V domains shown)
VH: B5 VH with T35S, T56S, Y58F, V100G, V101T, W102G, G103L, M104F, V106Y, T112L
VL: DIQLTQSPSFLSASVGDRVTITCRASQGISSYLAWYQQKPGKAPKLLIYAASTLQSGVPSRFSGSGSGTEFTLTISSLQPEDFATYYCQQLDSYPPGTFGPGTKVDIK
B7: C937 (antibody, V domains shown)
VH: EVQLVESGGGLIQPGGSLRLSCAASELTVSSNYMSWVRQAPGKGLEWVSVIYPGGSTFYADSVKGRFTISRDNSKNTLYLQMNSLRAEDTAVYYCARDLGTGLFDYWGQGTLVTVSS
VL: B6 VL with Y87F, Q90L, D92N, Y94N
B8: C930 (antibody, V domains shown)
VH: B5 VH with I12F, S21A, F27I, T35S, A40P, S53A, T56S, Y58F, F67L, M82I
VL: B5 VL with L90Q, S93T
B9: C909 (antibody, V domains shown)
VH: QVQLVQSGAEVKKPGASVKVSCRASGYTFPNYDLNWVRQATGQGLEWMGWMNPNSGNTGYAQKFQGRITMTRITSISTAYMELSSLRSEDTAVYYCARGRANWNSNFLLDSWGQGTLVTVSS
VL: QSALTQPASVSGSPGQSITISCTGTSSDVGGYNLVSWYQQYPGNVPKLMIYEDAKRPSGVSNRFSGSKSANTASLTISGLQAEDEADYYCCSYAGSSTRYVFGTGTKVTVL
B10: C910 (antibody, V domains shown)
VH: QVQLVQSGAAVKKPGASVKVSCKASGYTFTSYDINWVRQAPGQGLEWMGWMNPNSGNTGFAQRFQGRATLSRDTSITTAYMELTTLRSEDTAVYYCARGRANYNSKFLLDNWGQGTLVTVSS
VL: QSALTQPASVSGSPGQSITISCTGTSSDVGSYNLVSWYQQHPGTAPKLMIYEGSKRPSGVSDRFSGYKSGNTASLTISGLQADDEADYYCCSFAGSTTRYVFGTGTRVTVL
B11: C911 (antibody, V domains shown)
VH: QVQLVESGGGVVQPGGSLRLSCAASAFTFSSYAMHWIRQSPGKGLEWVAVISSDGSSKFYADSVKGRFTISRDNSKNTLYLQMNSLSAEDTAVYYCARDLENVLIEVALQDWGQGTLVTVSS
VL: DIQMTQSPSSLSASVGDRVTITCRASQSINSYLNWYQQKPGKAPKLLIYAASSLHSGVPSRFSGSGSGTDFTLTISSLQPEDFATYYCQQSYTTLALTFGGGTKVEIK
B12: C920 (antibody, V domains shown)
VH: QLQLQESGPGLVKPSETLSLTCAVSGGSISNSPFYWGWIRQPPGKGLECIGSIYYSGSTYYNPSLKSRVTISVDTSKKQFSLKLSSVTAADTAVYYCARHFADGSGRVVDSWGQGILVTVSS
VL: EIVLTQSPATLSLSPGERATLSCRASQSVSSYLAWYQQKPGQAPSLLIYDVSNRATGIPARFSGSGSGTDFTLTISSLEPEDFAVYYCQQRINWPLYTFGQGTKLEIK
B13: C921 (antibody, V domains shown)
VH: B12 VH with G37A, S56T, K77T, S85R, S111Y, I116T
VL: B12 VL with S30T, S31T, S45R, N53S, I92S
B14: C914 (antibody, V domains shown)
VH: QVQLQESGPGLVKPSQTLSLTCTVSGGSITSGDYYWTWIRQPPGKGLEWIGYIYYSGNTYYNLSLRSRITISEDTSKNQFSLKLRSVTAADTAVYYCARAMITFGGVIVVLDYWGQGTLVTVSS
VL: QSALTQPPSASGSPGQSVTISCTGTSTDVGGYNFVSWYQQHPGKAPKLMIYEVSKRPSGVPDRFSGSKSGNTASLTVSGLQAEDEADYYCSSYAGSNILYVFGTGTKVTVL
B15: C915 (antibody, V domains shown)
VH: QVQLQESGPGLVKPSQTLSLTCTVSGGSISSGDYYWSWIRQPPGKGLEWIGYIYYSDSTYYNPSLRTRVTISVDTSKNQFSLKLTSVTAADTAVYYCARAMITFGGVIVLYDYWGQGTLVTVSS
VL: B14 VL with T27S, F34Y, S54T, D62A, N97I, I98L
B16: C918 (antibody, V domains shown)
VH: QVQLVESGGGLVKPGGSLRLSCTASGFTFSDYYMTWLRQAPGKGLEWVSYISSTSPYTSYADSVKGRFTISRDNARNSVYLQMNSLRAEDTAIYYCARVPPPQRLHPFDVWGQGTMVTVSS
VL: DIQMTQSPSTLSASVGDRVTITCRASQSISSWLAWYQQKPGKAPKLLIYQASSLESGVPSRFSGSGSGTDFTLTISSLQPDDFATYYCQQYFRYSWTFGQGTKVEI
B17: C931 (antibody, V domains shown)
VH: QVQLVESGGGVVQPGRSLRLSCAASGFSFSTYGMHWVRQAPGKGLEWVAVISFDGSQKYYGDSVKGRFTISRDNPKNTLDLQMNSLRAEDTAVYYCAKVVVRGVIISLYYGMDVWGQGTTVTVSS
VL: not shown
B18: C932 (antibody, V domains shown)
VH: QVQLVESGGSVVQPGKSLRLSCAGSGFAFSTYGMHWVRQAPGKGLEWVAVISSDGGNKYYADSVKGRFTISRDNYENTLYLQMNSLGAEDTAVYYCAKVALRGVFISLYYGMDVWGQGTTVTVSS
VL: SYELTQPPSVSVTPGQTASITCSGDKLGDKYACWFLQKPGQSPLLVIYQDTKRPSGIPDRLSGSKSGNTATLTISGTQAMDEADYYCQTWDSSAVVFGGGTKLTV
B19: C916 (antibody, V domains shown)
VH: EVQLVESGGGLVQPGGSLRLSCAASGFTFSNYDMHWVRQATGRGLEWVSTIGTAGDTYYPGSVKGRFTISRENAKNSLYLQMNSLRAGDTALYYCARVRYDSSGYFWSLDYWGQGTLVTVSS
VL: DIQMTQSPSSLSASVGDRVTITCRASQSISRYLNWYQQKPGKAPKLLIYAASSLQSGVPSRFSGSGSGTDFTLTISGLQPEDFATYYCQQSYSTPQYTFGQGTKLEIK
B20: C917 (antibody, V domains shown)
VH: B19 VH with R43K, E46D, L92V, Y100F, S102T
VL: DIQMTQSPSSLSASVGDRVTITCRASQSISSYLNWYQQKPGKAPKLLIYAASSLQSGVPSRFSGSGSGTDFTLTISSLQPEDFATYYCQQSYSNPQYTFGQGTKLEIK
B21: C927 (antibody, V domains shown)
VH: QVQLVESGGGVVQPGRSLRLSCVASGFTFSYFDMHWVRQAPGKGLEWVALISHDGSTTFYGDSARGRFTISRDNSRNTLDLQMNSLRPEDTAVYFCAKPVDAAMFDFWGQGTLVTVS
VL: SYELTQPPSVSVAPGKTARITCGGNNIGSKSVHWYQQRPGQAPVLVIYYDSDRPSGIPERFSGSNSGNTATLTISRVEAGDEADFYCQVWDRSTNHLVVFGGGTQLTVL
B22: C907 (antibody, V domains shown)
VH: QVQLQESGPGLVKPSETLSLTCTVSGGSITSYYWTWIRQSPGKGLEWIGYIYYIGSTNYNPSLKSRLTISLATSKNQFSLRLNSVTAADTAVYYCASYYNDTSGYSYGLDVWGQGTTVTVSS
VL: DIQMTQSPSSLSAFVGDRVTITCRAGQSISSYLHWYQQKPGKAPKLLIYATSTLQSGVPSRFSGRGSGTDFTLTISGLQPEDFATYYCQQSYSTPQTFGQGTKVEIK
B23: C928 (antibody, V domains shown)
VH: QVQLVESGGGVVQPGRSLRLSCAASGFTFSFFDMHWVRQAPGKGLEWVADISYDGSNQYYGDSVKGRFTISRDNSKSTLYLQMNSLRAEDTAVYYCAKPVDTAMFDSWGQGTLVTVSS
VL: SYELTQPPSVSVAPGETARITCGGNNIGHKSVHWYQQQPGQAPVLVIYYDSERPSGIPERFSGSNSGNTATLTISRVEAGDEADYHCQVWDGGNDHLVIFGGGTKLTVL
B24: C938 (antibody, V domains shown)
VH: QVQLVESGGGVVQPGRSLRLSCAASGFTFRSHAMHWVRQAPGKGLEWVAIISSDGFNKYYADSVKGRFTISRDNSKNTLYVHMNSLRVEDTAIYYCASGLLWFETREISGAPDYGMAVWGQGATVTVSS
VL: DIQMTQSPSSLSASVGDRVTITCRASQNISNFLNWYQQKPGKAPKLLIYAASSLQSGVPSRYSGSGSGTDFTLTISSLQAEDFATYYCQQSYSTPLTFGGGTKVEIK
B25: C922 (antibody, V domains shown)
VH: QVQLVESGGGLVKPGGSLRLSCAGSGFTFTDYYMAWIRQAPGKGLEWVSYISTSDRFINYADSVKGRFTISRDDAKNSLYLQMNSLRAEDTAVYYCARDGGGYDRFDHWGQGTLVTVSS
VL: DIQMTQSPSSLSASVGDRVTITCQASQDISNLLNWYQQKAGKAPKLLIYDASNLETGVPSRFSGSGSGTDFTFTISSLQPEDIATYYCLQYDNLPLTFGQGTKLEIK
B26: C923 (antibody, V domains shown)
VH: QVQLVESGGGLVKPGGSLRLSCAASGFTFSDYHMTWIRQAPGKGLEWVSYISNRSTYRNYADSVKGRFTISRDNAKNSLYLQMNSLRAEDTAVYYCARDGGAYDRFDYWGQGTLVTVSS
VL: B25 VL with S30K, N31K, L32F, A40P, F71L, L89Q
B27: C908 (antibody, V domains shown)
VH: EVQLVQSGAEVKKPGESLKISCKASGYSFTIYWIGWVRQMPGKGLEWMGIIYPGESETRYSPSFQGQVTISADKSISTAYLQWRSLKASDTAMYYCARGGPPGGVKLELTDYWGQGTLVTVSS
VL: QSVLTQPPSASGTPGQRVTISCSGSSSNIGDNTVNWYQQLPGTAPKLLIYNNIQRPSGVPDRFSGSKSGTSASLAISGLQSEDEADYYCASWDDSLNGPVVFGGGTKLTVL

Target: T1, SARS-COV-2 RBD (SARS-COV-2, UniProt P0DTC2 319-539)
T1 construct: also called WT RBD
Test: ELISA, RBD coated on plate

| Binder | EC50 |
| --- | --- |
| B1 | 2.5 ng/mL |
| B2 | 2.26 ng/mL |
| B3 | 0.95 ng/mL |
| B4 | 2.45 ng/mL |
| B5 | 2.07 ng/mL |
| B6 | 1.56 ng/mL |
| B7 | 0.97 ng/mL |
| B8 | 1.24 ng/mL |
| B9 | 3.24 ng/mL |
| B10 | 2.47 ng/mL |
| B11 | 2.36 ng/mL |
| B12 | 2.35 ng/mL |
| B13 | 3.91 ng/mL |
| B14 | 1.59 ng/mL |
| B15 | 3.49 ng/mL |
| B16 | 1.78 ng/mL |
| B17 | 2.57 ng/mL |
| B18 | 3.57 ng/mL |
| B19 | 1.97 ng/mL |
| B20 | 1.05 ng/mL |
| B21 | 3.77 ng/mL |
| B22 | 3.71 ng/mL |
| B23 | 4.14 ng/mL |
| B24 | 2.63 ng/mL |
| B25 | 2.42 ng/mL |
| B26 | 1.95 ng/mL |
| B27 | 1.27 ng/mL |
